B1: LINE1-full (parent)
chain: UACGUAGGUGGUUUUCCCCUGAUAGUGCUAAGGGGGCCUGGAAGUUUGGACUGGGCAGAGCUCAACACAGCGUGGCAAAGUGGCUGUGGCUAGACUGCCUCUCUGGAUUCCUCGUCACUCAGCAGGGCAUCUCUGAGAGAAAUGCC

These results are taken from the RNAGym collection of RNA variant scans (doi:10.7554/elife.90254).

Variants of B1 are the subject of this series. Kind of series: self-cleavage, relative activity (ratio to wild type); higher = more cleavage; in vitro, sequencing; the parent is a self-cleaving ribozyme.
With A2U U143A, the self-cleavage came out at 1. The value for U1C U100A was 0.69; that for U1A A121G was 1.73; that for C3A G127A was 0.43. Under A2G G27A stands 0.19; under C3A U12G, 0.81. Under U1A G54A stands 1.05; under A2G G55A, 0.2.

A2G G55U: the self-cleavage was found to be 0.49. For A2G C37U, the self-cleavage was 0.89.

On to A2U U23C, for which the self-cleavage is 0.

For U1C C98U, the self-cleavage worked out at 0.13. Under C3U C131U stands 1.02.

Consider U1C C90A, for which the self-cleavage turned out to be 0. Under U1C C63U stands 0.24; under U1C U119C, 0.78; under A2U A64U, 0.37.

With U1A U115A, the self-cleavage was determined as 1.1. Under U1A U115C stands 1.3; under U1G U12C, 0.64; under U1C A77C, 1.02. The value for A2C U26C was 1.05; that for U1C U46C was 1.11. The value for U1C U46A was 0.43. On to A2G A78G, for which the self-cleavage was 1.04. The value for A2G A94C was 0.29. Under A2G A136G stands 0.82; under A2G G105U, 1.3. The value for A2G G105A was 1.27; that for C3A U85A was 0.13. Regarding C3U A69G, the self-cleavage was found to be 0.53. Under C3U A77G stands 0.71; under C3U A77U, 0; under C3U A140G, 0.97.

Take C3A A94G: the self-cleavage came out at 0.3. Regarding U1C A117G, the self-cleavage came out at 0.73. Under U1C A117U stands 0.89; under C3U U87A, 0.18; under C3U U87C, 0.12. As to U1C G4A, the self-cleavage stood at 0.46. The value for A2G C76U was 1.17.

Consider A2C U39A, for which the self-cleavage was determined as 1.3. The value for U1C G8A was 0.49; that for U1C A136G was 1.08; that for U1A A69G was 1.2. The value for A2G U47C was 0.84; that for A2G C17A was 1.56; that for A2G G93A was 0.1. As to C3U A57U, the self-cleavage stood at 0.17. The value for U1G G114C was 0.52; that for A2G U62C was 0.09; that for A2G U62A was 0.09. Under U1A U9A stands 1.15. With U1A C3U, the self-cleavage was determined as 0. Turning to C3U U14A, the self-cleavage was 0.24.

For C3A A121U, the self-cleavage was determined as 0.58. The value for U1C A42G was 0.92; that for C3G U81C was 0.75. The value for U1C C76U was 1.56; that for C3U G82U was 0.88. Under C3A A65G stands 0.29; under U1A U109A, 1.56. U1A U109C: the self-cleavage was determined as 1.05. The value for A2U A142C was 1.09; that for A2G A77G was 1.36. The value for A2G U132G was 1.6; that for C3G A141G was 0.66. The value for U1A U12C was 1.4; that for C3A U115C was 1.22; that for A2G U9A was 0.56. In the case of C3U U9A, the self-cleavage stood at 0.84.

For U1C U5C, the self-cleavage stood at 0.87. For the variant A2G C118G, the self-cleavage came to 1.04. Under U1G U39C stands 0.72; under U1C A57U, 0.09; under A2U U73A, 0.45.

For A2U U73C, the self-cleavage worked out at 0.56.

Take C3A A31G: the self-cleavage turned out to be 0.87. With A2G U104A, the self-cleavage came to 0.95. Under U1A U132A stands 1.35. With U1C U15A, the self-cleavage was 0.81. The value for A2G A30U was 0.85. Under A2C A31G stands 1.34; under A2G U130C, 0.56; under A2G U112C, 0.87. For the variant U1A A77G, the self-cleavage worked out at 1.66. U1A U15C: the self-cleavage came out at 2.17. For A2C A138G, the self-cleavage is 2.07.

As for A2U A129U, the self-cleavage amounted to 0.75. With C3U U62G, the self-cleavage is 0.07. Under C3U U62A stands 0.2.

As for A2G C19U, the self-cleavage came to 0.56. The value for U1A A141G was 1.43; that for A2U U81A was 1.38; that for A2U A121G was 1.53.

For the variant A2G U73C, the self-cleavage came to 0.81.

Regarding C3U A59U, the self-cleavage is 0.56. The value for U1C U23A was 0.56. The value for U1C U23C was 0.98; that for C3U U73A was 0.91; that for C3U U73C was 1.49. Under U1C C51U stands 0.71.

As to C3U A124U, the self-cleavage stood at 1. With C3A A129G, the self-cleavage was 0.88.

Turning to C3A G32A, the self-cleavage turned out to be 0.88.

Take A2G U45A: the self-cleavage is 0.63. The value for A2G U52A was 1.11. Under U1A A129G stands 1.47; under C3A A30G, 1.39. As for U1C U12A, the self-cleavage came out at 0.95. Under A2U U115A stands 0.77; under U1C U14G, 0.36.

With U1A U39C, the self-cleavage came out at 1.2. The value for A2U U15G was 0.51; that for A2G A42U was 0.69.

A2G A42G: the self-cleavage is 0.72.

As to C3U A64G, the self-cleavage worked out at 0.21. The value for C3A U96C was 0.2; that for U1C U85C was 0.2; that for A2G A140G was 0.94.

For the variant A2G G137A, the self-cleavage was determined as 0.61. Under U1C A67C stands 0.09. The value for A2G U134A was 1.38; that for A2G C38A was 1.05; that for U1A U26G was 1.19. The value for A2C U62C was 0.11. For C3U A24U, the self-cleavage worked out at 1.15. The value for C3U U102A was 1.1; that for A2U U130C was 0.32. The value for U1G A78G was 1.25.

On to A2C C17G, for which the self-cleavage stood at 1.03. With A2G G21C, the self-cleavage was 1.04. Under A2G C66U stands 0.4. The value for U1C A64G was 0.2; that for U1C A64U was 0.29.

Turning to U1A U100C, the self-cleavage was found to be 1.18. With A2U A67G, the self-cleavage worked out at 0.61. The value for A2C A107G was 1.15.

As to U1G U13G, the self-cleavage was found to be 1.14. On to A2G A129G, for which the self-cleavage was found to be 0.46. Under A2G G36A stands 0.7; under C3U G72A, 0.05; under U1A A59U, 0.91. With U1C G32U, the self-cleavage was found to be 0.21.

With A2G A117U, the self-cleavage is 1.

Take A2G U15G: the self-cleavage turned out to be 0.99. With U1C A92G, the self-cleavage worked out at 0.14.

In the case of C3A G72A, the self-cleavage amounted to 0.38. Under C3A A67G stands 0.56; under A2G A43U, 1.34. The value for U1C A43U was 0.75. The value for U1C A43G was 0.79; that for U1C A43C was 0.37; that for A2U U104A was 0.26. As to C3A U109C, the self-cleavage came to 0.53. Under A2G A6G stands 0.68; under A2G U39A, 0.89.

In the case of U1C U102C, the self-cleavage worked out at 1.03. The value for A2U A79G was 1.45. Under A2G U143A stands 0.99; under A2G U143C, 1.2. Regarding U1C G105A, the self-cleavage came out at 0.12. Under U1C A138U stands 0.57; under U1A A65G, 0.07; under U1C U143A, 1.35. The value for U1C U73G was 1.53; that for U1C U73C was 1.04.
